Target: Recombinant full-length WAVE2 tagged with GST at its COOH terminus (UniProt Q9Y6W5 1-498)
Experiment: dual polarization interferometry

Chain of Recombinant full-length WAVE2 tagged with GST at its COOH terminus (Q9Y6W5 whole entry): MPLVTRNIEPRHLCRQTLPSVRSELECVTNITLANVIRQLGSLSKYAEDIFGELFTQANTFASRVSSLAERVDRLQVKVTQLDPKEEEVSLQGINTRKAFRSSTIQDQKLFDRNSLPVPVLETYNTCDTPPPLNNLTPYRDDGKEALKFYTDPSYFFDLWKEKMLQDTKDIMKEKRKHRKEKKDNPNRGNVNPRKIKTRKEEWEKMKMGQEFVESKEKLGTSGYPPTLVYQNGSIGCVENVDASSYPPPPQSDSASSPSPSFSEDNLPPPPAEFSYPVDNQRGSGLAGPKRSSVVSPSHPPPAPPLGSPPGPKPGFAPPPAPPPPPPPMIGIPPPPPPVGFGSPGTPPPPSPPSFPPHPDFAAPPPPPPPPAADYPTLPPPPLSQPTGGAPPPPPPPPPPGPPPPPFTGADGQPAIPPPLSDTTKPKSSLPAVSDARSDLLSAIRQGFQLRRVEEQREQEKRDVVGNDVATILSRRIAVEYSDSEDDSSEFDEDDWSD

B1: Coiled-coil region of Abi1 (aa 6–124) (domain or fragment)
chain: MLLEEEIPSGKRALIESYQNLTRVADYCENNYIQATDKRKALEETKAYTTQSLASVAYQINALANNVLQLLDIQASQLRRMESSINHISQTVDIHKEKVARREIGILTTNKNTSRTHKI
Kd: 600 nM

Reference: paper PMC2063866 (The Journal of Cell Biology, 2006)
